The values below come from US6750197B1, “Activators of endothelial nitric oxide synthase” (Rensselaer Polytechnic Institute, priority 1996, dated 2004).

Assay [1] concerns the target NNOS (Rattus norvegicus, UniProt P29476). As to the kind of experiment: CAM binding: radiolabeled CAM trapped on a membrane by NNOS adhesion. The conditions noted are these: no peptide: 774 ± 40. How it is done:
(§1) JX series polypeptides are approximately 30-mers derived from ENOS and NNOS inhibitory polypeptides. B058 series are shorter (6-mers to 15-mers) peptides derived from flanking loops or from shorter segments of inhibitory polypeptides. CAM binding data represents counts from radiolabeled CAM trapped on a membrane by NNOS adhesion. INOS activity was assayed by measuring oxidation of ferrous myoglobin by product NO.

Assay [2] deals with NOS. As to the kind of experiment: Radioligand binding of [125I]-calmodulin to NOS. Also on record: scale not given here. The following applies: ligand 1 nM, 15 minutes at 23° C., mean ± SEM. Here is the method: (§2) NOS activity measurements were performed using recombinant rat NNOS (purified from overexpressing HEK293 cells), recombinant bovine ENOS (purified from overexpressing E. coli) or native INOS (from immunostimulant-activated rat aortic smooth muscle cells). Activity was determined with 1-20 pmole of NOS using a kinetic 96-well microtiter plate assay based on the kinetics of NADPH consumption (NNOS and ENOS) or Fe^2+-myoglobin oxidation. Radioligand binding was performed after incubation of 1-2 pmole of NOS for 15 minutes at 23° C. with either Bolton-Hunter labelled [125I]-calmodulin (1 nM) or [3H]-N-nitro-L-arginine (200 pM) and the indicated peptides. Values are means ±SEM of triplicate determinations.

For assay [3], the target named is T1, native INOS (from immunostimulant-activated rat aortic smooth muscle cells) (Rattus norvegicus, UniProt Q06518).
T1 construct: endogenous in cells
As to the kind of experiment: NOS activity, kinetic 96-well microtiter plate assay, Fe2+-myoglobin oxidation. It is filed as biochemical. The conditions noted are these: mean ± SEM, triplicate. Here is the method: as §2

In assay [4] the target is T2, recombinant rat NNOS (Rattus norvegicus, UniProt P29476).
T2 construct: made in house; host or cells: HEK293 cells
As to the kind of experiment: NOS activity, kinetic 96-well microtiter plate assay, NADPH consumption. It counts as biochemical. The following applies: mean ± SEM, triplicate. Here is the method: as §2

For assay [5], the target named is T3, recombinant bovine ENOS (Bos taurus, UniProt P29473).
T3 construct: made in house; host or cells: E. coli
T3 sequence (P29473 1-1205): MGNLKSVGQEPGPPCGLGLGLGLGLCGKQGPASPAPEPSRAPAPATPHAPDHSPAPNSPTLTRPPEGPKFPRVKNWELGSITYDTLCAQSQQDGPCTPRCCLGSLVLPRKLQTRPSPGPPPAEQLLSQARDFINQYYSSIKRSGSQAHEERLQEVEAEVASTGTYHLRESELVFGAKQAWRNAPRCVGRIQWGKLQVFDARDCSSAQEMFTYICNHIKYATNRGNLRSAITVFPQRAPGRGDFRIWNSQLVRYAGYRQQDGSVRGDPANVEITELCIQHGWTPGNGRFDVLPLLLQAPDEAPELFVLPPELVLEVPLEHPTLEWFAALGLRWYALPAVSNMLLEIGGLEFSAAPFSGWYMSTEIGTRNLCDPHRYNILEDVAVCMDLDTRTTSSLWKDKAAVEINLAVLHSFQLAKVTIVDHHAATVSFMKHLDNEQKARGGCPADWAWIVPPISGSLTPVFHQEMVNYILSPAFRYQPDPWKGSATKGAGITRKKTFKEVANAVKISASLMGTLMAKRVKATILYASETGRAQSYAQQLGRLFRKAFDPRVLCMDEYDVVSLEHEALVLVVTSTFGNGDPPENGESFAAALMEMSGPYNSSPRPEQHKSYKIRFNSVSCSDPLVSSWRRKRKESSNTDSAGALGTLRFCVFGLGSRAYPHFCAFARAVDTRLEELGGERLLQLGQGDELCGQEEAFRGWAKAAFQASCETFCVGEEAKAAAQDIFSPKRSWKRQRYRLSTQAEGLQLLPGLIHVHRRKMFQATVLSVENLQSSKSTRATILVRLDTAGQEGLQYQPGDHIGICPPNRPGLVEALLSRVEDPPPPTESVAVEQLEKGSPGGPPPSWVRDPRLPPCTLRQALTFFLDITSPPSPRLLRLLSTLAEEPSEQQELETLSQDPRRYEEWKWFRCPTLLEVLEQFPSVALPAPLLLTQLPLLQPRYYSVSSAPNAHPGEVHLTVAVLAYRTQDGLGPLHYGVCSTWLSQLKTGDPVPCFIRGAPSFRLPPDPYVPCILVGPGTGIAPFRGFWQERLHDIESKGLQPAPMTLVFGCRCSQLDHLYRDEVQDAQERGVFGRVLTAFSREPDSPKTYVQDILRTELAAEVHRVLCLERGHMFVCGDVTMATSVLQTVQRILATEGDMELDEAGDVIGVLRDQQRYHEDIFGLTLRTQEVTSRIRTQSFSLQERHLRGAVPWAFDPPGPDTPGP
The description is as above. The following applies: mean ± SEM, triplicate. It counts as biochemical. Here is the method:
as §2

Assay [6] addresses INOS (Rattus norvegicus, UniProt Q06518). As to the kind of experiment: INOS activity by oxidation of ferrous myoglobin by product NO. It is filed as biochemical. Also on record: unit not given here. The conditions noted are these: for INOS Activity 0.1 mg/ml: peptide 0.1 mg/ml, no peptide: 14.9 ± .56; for INOS activity 0.3 mg/ml: peptide 0.3 mg/ml, no peptide: 12.3 ± .19; for INOS Activity 1.0 mg/ml: peptide 1.0 mg/ml, no peptide: 13.0 ± .23. How it is done:
as §1

Assay [7] concerns NOS. As to the kind of experiment: Radioligand binding of [3H]-N-nitro-L-arginine to NOS. Also on record: scale not given here. The following applies: ligand 200 pM, 15 minutes at 23° C., mean ± SEM. Here is the method:
as §2

T2 sequence (P29476 whole entry): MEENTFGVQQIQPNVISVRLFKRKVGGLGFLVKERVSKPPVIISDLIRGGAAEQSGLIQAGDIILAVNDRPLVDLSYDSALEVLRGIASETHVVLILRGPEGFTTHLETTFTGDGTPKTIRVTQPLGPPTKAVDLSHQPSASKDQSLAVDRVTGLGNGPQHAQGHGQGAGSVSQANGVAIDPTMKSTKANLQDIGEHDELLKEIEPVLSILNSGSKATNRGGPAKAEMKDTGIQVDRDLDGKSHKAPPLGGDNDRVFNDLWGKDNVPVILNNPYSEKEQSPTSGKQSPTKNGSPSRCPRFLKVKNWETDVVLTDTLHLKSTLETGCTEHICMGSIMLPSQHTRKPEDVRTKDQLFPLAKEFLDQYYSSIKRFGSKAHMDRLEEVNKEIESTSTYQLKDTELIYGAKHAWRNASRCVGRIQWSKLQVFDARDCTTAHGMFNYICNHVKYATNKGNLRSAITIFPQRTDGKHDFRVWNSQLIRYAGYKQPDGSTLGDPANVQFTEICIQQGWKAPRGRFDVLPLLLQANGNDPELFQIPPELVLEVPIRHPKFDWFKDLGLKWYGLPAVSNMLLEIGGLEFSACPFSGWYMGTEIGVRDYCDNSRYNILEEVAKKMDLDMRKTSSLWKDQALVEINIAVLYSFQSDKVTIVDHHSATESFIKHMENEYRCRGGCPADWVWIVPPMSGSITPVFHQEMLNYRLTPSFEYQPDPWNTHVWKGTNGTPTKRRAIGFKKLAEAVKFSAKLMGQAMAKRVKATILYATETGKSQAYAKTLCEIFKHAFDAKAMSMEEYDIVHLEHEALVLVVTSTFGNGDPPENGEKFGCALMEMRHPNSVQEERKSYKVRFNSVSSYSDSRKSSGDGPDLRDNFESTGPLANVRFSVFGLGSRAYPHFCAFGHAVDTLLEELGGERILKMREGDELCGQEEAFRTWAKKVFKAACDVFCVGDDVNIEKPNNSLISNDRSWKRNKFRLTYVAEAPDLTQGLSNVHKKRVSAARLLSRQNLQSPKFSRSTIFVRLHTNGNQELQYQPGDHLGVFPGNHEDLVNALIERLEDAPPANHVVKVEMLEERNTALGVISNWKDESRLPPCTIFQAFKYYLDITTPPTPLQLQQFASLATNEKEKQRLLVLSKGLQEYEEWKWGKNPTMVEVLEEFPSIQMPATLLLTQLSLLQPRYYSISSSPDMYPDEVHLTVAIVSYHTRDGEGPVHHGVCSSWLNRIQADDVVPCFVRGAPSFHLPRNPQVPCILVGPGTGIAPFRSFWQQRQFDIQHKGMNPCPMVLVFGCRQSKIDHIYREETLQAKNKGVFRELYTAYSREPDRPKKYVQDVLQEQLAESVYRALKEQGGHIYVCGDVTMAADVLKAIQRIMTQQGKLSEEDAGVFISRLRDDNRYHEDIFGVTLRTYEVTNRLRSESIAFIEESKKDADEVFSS
NNOS, sequence (P29476 whole entry): as above

For the substance QEERKSYKVRF [BO58-09, 16], in assay [1], the “NNOS CAM Binding” value stood at 686 ± 43 counts. The “Ligand binding to NOS [125I]-CAM” value in assay [2] (peptide 100 μg/ml) is on record as 82.7 ± 1.1. For the same substance, the “NOS Activity (% of control) INOS” value in assay [3] (peptide 100 μg/ml) is listed as 101.1 ± 3.7 % of control. In addition, in assay [4] (peptide 100 μg/ml), the “NOS Activity (% of control) NNOS” value was 102.0 ± 2.1 % of control. Further, in assay [5] (peptide 100 μg/ml), the “NOS Activity (% of control) ENOS” value was 93.6 ± 2.3 % of control. In addition, the “INOS Activity 0.1 mg/ml” value in assay [6] is recorded as 14.7 ± .28. Besides, the “Ligand binding to NOS [3H]-NHA” value in assay [7] (peptide 100 μg/ml) was determined as 118.9 ± 4.1.

“QEERKSYKVRFNSVSSYSDSQKSSGDGPDL [JX4, 19]”: in assay [1], the “NNOS CAM Binding” value amounted to 659 ± 41 counts. Also, the “Ligand binding to NOS [125I]-CAM” value in assay [2] (peptide 300 μg/ml) turned out to be 82.7 ± 1.1. In assay [3] (peptide 300 μg/ml), the “NOS Activity (% of control) INOS” value is given as 84.1 ± 3.5 % of control. In addition, in assay [4] (peptide 300 μg/ml), the “NOS Activity (% of control) NNOS” value was 103.0 ± 1.3 % of control. The “NOS Activity (% of control) ENOS” value in assay [5] (peptide 300 μg/ml) is recorded as 80.2 ± 3.8 % of control. Further, in assay [6], the “INOS Activity 0.1 mg/ml” value is 14.1 ± .57, the “INOS activity 0.3 mg/ml” value is 10.4 ± .57 and the “INOS Activity 1.0 mg/ml” value is given as 8.4 ± .57. Further, in assay [7] (peptide 300 μg/ml), the “Ligand binding to NOS [3H]-NHA” value came to 95.7 ± 4.7.

In the case of QHKSYKIRFNSVSCSDPLVSSWRRKRKE [JX3, 15], in assay [1], the “NNOS CAM Binding” value was 674 ± 100 counts. The “Ligand binding to NOS [125I]-CAM” value in assay [2] (peptide 300 μg/ml) is given as 0.0 ± 4.8. The “NOS Activity (% of control) INOS” value in assay [3] (peptide 300 μg/ml) is given as 64.3 ± 3.2 % of control. Also, the “NOS Activity (% of control) NNOS” value in assay [4] (peptide 300 μg/ml) is recorded as 28.2 ± 0.9 % of control. In assay [5] (peptide 300 μg/ml), the “NOS Activity (% of control) ENOS” value is 40.2 ± 4.0 % of control. In addition, in assay [6], the “INOS Activity 0.1 mg/ml” value is listed as 12.9 ± .32, the “INOS activity 0.3 mg/ml” value is recorded as 7.9 ± .11 and the “INOS Activity 1.0 mg/ml” value is given as 2.9 ± .32. The “Ligand binding to NOS [3H]-NHA” value in assay [7] (peptide 300 μg/ml) is 122.4 ± 1.0.

On to RPEQHKSYKIRF [BO58-10, 17], for which the “NNOS CAM Binding” value in assay [1] was 1339 ± 49 counts. Further, the “Ligand binding to NOS [125I]-CAM” value in assay [2] (peptide 100 μg/ml) is listed as 24.7 ± 2.2. Further, in assay [3] (peptide 100 μg/ml), the “NOS Activity (% of control) INOS” value is recorded as 99.7 ± 5.7 % of control. Besides, in assay [4] (peptide 100 μg/ml), the “NOS Activity (% of control) NNOS” value is listed as 54.5 ± 1.8 % of control. Also, the “NOS Activity (% of control) ENOS” value in assay [5] (peptide 100 μg/ml) is listed as 80.5 ± 2.0 % of control. In addition, in assay [6], the “INOS Activity 0.1 mg/ml” value is reported as 14.6 ± .02. Also, the “Ligand binding to NOS [3H]-NHA” value in assay [7] (peptide 100 μg/ml) is listed as 115.0 ± 8.6.

Consider SDSRKSSGDGPDLR [BO58-11, 18], for which the “NNOS CAM Binding” value in assay [1] is on record as 908 ± 56 counts. Besides, the “Ligand binding to NOS [125I]-CAM” value in assay [2] (peptide 100 μg/ml) is on record as 89.2 ± 6.2. In assay [3] (peptide 100 μg/ml), the “NOS Activity (% of control) INOS” value is on record as 99.7 ± 2.8 % of control. Further, the “NOS Activity (% of control) NNOS” value in assay [4] (peptide 100 μg/ml) is recorded as 98.4 ± 1.9 % of control. In addition, the “NOS Activity (% of control) ENOS” value in assay [5] (peptide 100 μg/ml) is on record as 102.6 ± 4.1 % of control. Also, in assay [6], the “INOS Activity 0.1 mg/ml” value is given as 14.7 ± .94. For the same substance, the “Ligand binding to NOS [3H]-NHA” value in assay [7] (peptide 100 μg/ml) is on record as 119.2 ± 3.4.

Turning to “SSPRPEQHKSYKIRFNSVSCSDPLVSSWRRKRKESS [JX2, 14]”, the “NNOS CAM Binding” value in assay [1] is recorded as 1356 ± 46 counts. The “Ligand binding to NOS [125I]-CAM” value in assay [2] (peptide 300 μg/ml) was 0.0 ± 7.4. For the same substance, the “NOS Activity (% of control) INOS” value in assay [3] (peptide 300 μg/ml) was 62.2 ± 2.8 % of control. Also, the “NOS Activity (% of control) NNOS” value in assay [4] (peptide 300 μg/ml) is 30.4 ± 1.7 % of control. Besides, the “NOS Activity (% of control) ENOS” value in assay [5] (peptide 300 μg/ml) is reported as 57.2 ± 7.5 % of control. Further, in assay [6], the “INOS Activity 0.1 mg/ml” value is given as 13.1 ± .11, the “INOS activity 0.3 mg/ml” value was 7.7 ± .11 and the “INOS Activity 1.0 mg/ml” value was 3.2 ± .11. In addition, in assay [7] (peptide 300 μg/ml), the “Ligand binding to NOS [3H]-NHA” value is 116.3 ± 1.9.

For WRRKRK [BO58-07, 12], in assay [1], the “NNOS CAM Binding” value is given as 1749 ± 40 counts. In addition, the “Ligand binding to NOS [125I]-CAM” value in assay [2] (peptide 100 μg/ml) stood at 6.7 ± 3.6. Moreover, in assay [3] (peptide 100 μg/ml), the “NOS Activity (% of control) INOS” value is given as 91.1 ± 5.7 % of control. Further, the “NOS Activity (% of control) NNOS” value in assay [4] (peptide 100 μg/ml) was 11.0 ± 3.3 % of control. In assay [5] (peptide 100 μg/ml), the “NOS Activity (% of control) ENOS” value is 24.0 ± 2.8 % of control. The “INOS Activity 0.1 mg/ml” value in assay [6] is 13.6 ± .31. Moreover, in assay [7] (peptide 100 μg/ml), the “Ligand binding to NOS [3H]-NHA” value is on record as 91.7 ± 5.1.
